Experimental findings from patent publication US20120253017A1 are described below.

Test [1] addresses mouse c-kit (recombinant, on BIAcore chip) (mouse) (UniProt P05532). Put plainly: BIAcore, mouse cKIT on high density CM5 chip.
Test [2] concerns the target mouse Stem Cell Factor, 6xHIS tag (mouse) (UniProt P20826). Description: BIAcore, SCF on CM5 chip.
Test [3] concerns the target human Stem Cell Factor, 6xHIS tag (human) (UniProt P21583). Put plainly: BIAcore, SCF on CM5 chip.
For test [4], the target named is mouse Stem Cell Factor, 6xHIS tag (mouse) (UniProt P20826). Put plainly: BIAcore, SCF on high density CM5 chip.
Chain of mouse Stem Cell Factor, 6xHIS tag (mouse) (P20826 26-190 limits assumed): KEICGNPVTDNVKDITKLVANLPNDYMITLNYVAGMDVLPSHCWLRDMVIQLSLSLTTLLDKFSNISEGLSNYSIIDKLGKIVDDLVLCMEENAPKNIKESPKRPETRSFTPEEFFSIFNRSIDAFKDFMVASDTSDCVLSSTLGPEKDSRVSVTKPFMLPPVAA
The target in test [5] is rat Stem Cell Factor, GlySerHis(6) tag (rat) (UniProt P21581). Put plainly: BIAcore, SCF on high density CM5 chip.
Chain of rat Stem Cell Factor, GlySerHis(6) tag (rat) (P21581 other isoform, or with tags, fused parts or gaps limits assumed): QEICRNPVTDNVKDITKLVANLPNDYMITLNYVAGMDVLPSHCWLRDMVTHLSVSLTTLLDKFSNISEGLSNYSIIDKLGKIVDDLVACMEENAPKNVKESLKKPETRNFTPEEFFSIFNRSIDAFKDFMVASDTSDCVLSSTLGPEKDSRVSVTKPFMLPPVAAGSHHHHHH

Chain of human Stem Cell Factor, 6xHIS tag (human) (P21583 26-190 limits assumed): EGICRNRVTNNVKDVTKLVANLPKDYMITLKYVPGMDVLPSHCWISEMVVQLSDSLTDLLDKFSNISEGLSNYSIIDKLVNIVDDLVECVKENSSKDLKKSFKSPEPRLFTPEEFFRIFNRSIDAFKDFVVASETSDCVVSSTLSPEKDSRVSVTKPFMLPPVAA

Turning to anti mouse cKIT antibody clone 2B8, in test [1], the response (RU) was found to be 100 RU.

With “Cyno cKIT ECD-Fc (from UniProt O95905) (Fc fusion)”, the dissociation constant Kd is 15 nM in test [2] and 9.78 nM in test [3].

Consider “mcKIT GNNK+ E207A (from UniProt P05532 25-527) (Fc fusion)”, for which the Kd in test [4] worked out at 26 nM; in test [5] it was 81 nM.
